This note sets out measurements from patent publication US6340783B1, “Rodent models of human amyloidoses” (University of Washington, priority 1992, dated 2002).

“Also recorded” adds a separate entry of the source. Like-named read-outs stand apart in the source and are kept apart here.

Assay [1] concerns the target T1, Beta-Amyloid Protein (1-28) (Homo sapiens, UniProt P05067).
T1 construct: residues 1-28 of BAP or residues 597-624 of BAPP; purchased Bachem Inc., Torrance, Calif; host or cells: synthetic peptide
Nature of the assay: Competitive inhibition of 125I-labeled HSPG binding to BAP (1-28) affinity column. Conditions: absence of unlabeled competing ligand, n=5. As to the method: ^125I-labeled HSPGs in the presence of increasing concentrations of unlabeled GAGs, or large low density HSPG (from EHS sarcoma) were applied to an Affi-gel 10 column containing BAP (residues 1-28). After nonbound PGs were eluted from the column using TBS+0.1% TX-100, bound PGs were eluted with a step gradient using 15 ml of 1M MgCl2 in TBS+0.1% TX-100, followed by 15 ml of 4M MgCl2 in TBS+0.1% TX-100, and then 10 ml of 8M urea buffer containing 3M NaCl. […] Bars indicate standard error of the mean.
In order to test the specificity of HSPG binding to BAP (1-28), competitive inhibition experiments were also performed. 125-I labeled HSPGs (100,000-200,000 dpm) were mixed with (a) HSPG from EHS sarcoma (Mr approximately 700,000) (Kato et al., 1988) (gift of Dr. Koji Kimata, Aichi, Japan), (b) heparin from porcine intestinal mucosa (Mr˜11,000; Sigma, St. Louis, Mo.), (c) chondroitin-6-sulfate from shark cartilage (Mr˜59,000; Sigma, St. Louis, Mo.), or (d) […] dextran sulfate (Mr˜110,000; Pharmacia Fine Chemicals, Uppsala, Sweden). The samples were incubated on a rotator for 2 hours at room temperature and then applied to the BAP (1-28) column. Columns were run and eluted with step gradients (1 to 4 M MgCl2) as described above.
Purified iodinated HSPGs were combined with various concentrations of unlabeled competing ligands and applied to a BAP (1-28) affinity column (FIG. 10).

The target in the next assay is T2, BAP (residues 1-28) (Homo sapiens, UniProt P05067).
T2 construct: residues 1-28 of BAP or residues 597-624 of BAPP; purchased Bachem Inc., Torrance, Calif; host or cells: synthetic peptide
As to the kind of experiment: Affinity column chromatography of labeled proteoglycans on BAP (1-28) Affi-gel 10 column. Type of assay: binding. As to the method: Approximately 500,000 dpm of ^35S-sulfate labeled PGs isolated from the culture media of ECs were applied to Affi-gel 10 affinity columns containing approximately 0.45 mg of 1) residues 1-28 of BAP, 2) residues 410-429, a region of BAPP present in the extracellular domain, or 3) bovine serum albumin. The labeled PGs were left on the column for 1 hour, after which non-bound radiolabelled PGs were eluted with 25 ml (50 0.5 ml fractions) of TBS+0.1% TX-100 and collected on a fraction collector. Bound PGs were then eluted from the column with 15 mls of 4M MgCl2 in TBS+0.1% TX-100.
0.5 mg or 1.0 mg of ligands consisting of 1) BAP (1-28) (Bachem Inc., Torrance, Calif.), 2) a peptide corresponding to residues 410-429 of the BAPP (gift of Dr. Dennis Selkoe, Boston, U.S.A.) or 3) bovine serum albumin (BSA fraction V, Boehringer, Mannheim Biochemical) were dissolved initially in 400 μl of double distilled water to which was added an equal volume of 0.2 M HEPES buffer (pH 7.5) containing 160 mM calcium chloride. The ligand solutions were added to 0.8-1.0 ml of Affi-gel 10 (Biorad, Richmond, Calif.) and coupling was allowed to proceed for 4 hours at 4° C., after which 1/10 volume of IM ethanolamine (pH 8.0) was added and incubation continued for an additional 1-2 hours to block remaining unreacted ester groups. Gel coupled ligand was then transferred to Biorad Econo-columns and washed with TBS in 0.1% Triton-X 100. To assess the amount of bound ligand, soluble (nonbound) protein remaining in the wash buffer was assayed. The affinity columns coupled approximately 90% of ligand initially applied (i.e. 0.45 mg or 0.90 mg).
^35S-sulfate labeled PGs isolated from the culture media (360,000 dpm) of ECs and SMCs were applied to Affi-gel 10 columns containing 1) BAP (residues 1-28), 2) BAPP (residues 410-429) or 3) Bovine serum albumin. The labeled PGs were allowed to interact with the affinity gel for 1 hour (preliminary experiments indicated maximum binding efficiency at 1 hour) and non-bound radiolabelled PGs were eluted with 25 ml of TBS+0.1% Triton X-100 (TBS-TX 100). Bound PGs were eluted with either a single-step gradient using 15 mls of 4M MgCl2 in TBS-TX 100 or a linear gradient of 0 to 4M MgCl2 in TBS-TX 100. In some experiments, columns were further eluted with 15 ml of 8M urea in 50 mM Tris-HCl (pH 7.5), with 0.5% Triton X-100 and 3M NaCl. The radioactivity per fraction was determined by scintillation counting. Most experiments were repeated a minimum of three times. Recoveries of applied radioactivity from the affinity columns ranged from 80-95%.

The next assay has as its target T3, mutated β/A4 (1-28) (Homo sapiens, UniProt P05067, H684G/H685G/K687G).
T3 construct: residues 1-28 of BAP or residues 597-624 of BAPP
As to the kind of experiment: Affinity column with β/A4 (1-28) mutated in the putative heparin binding domain. Conditions: histidine, histidine and lysine changed to glycine; versus normal β/A4 (1-28) column. The text has this:
As described above, residues 12-17 of the β/A4 (-valine-histidine-histidine-glutamine-lysine-leucine-) conform to a consensus sequence for a potential heparin/heparan sulfate binding domain. This has been recently confirmed by our studies, whereby comparisons were made using column affinity chromatography. One affinity column contained β/A4 (1-28), whereas the other affinity column contained β/A4 (1-28) with three amino acid substitutions of the putative heparin binding domain (i.e. the basic amino acids histidine, histidine and lysine where changed to glycine, and therefore were now uncharged instead of basic amino acids). ^125I-HSPG bound with high affinity to normal β/A4 (1-28) affinity column, whereas a 50-60% decrease in HSPG binding to the mutated β/A4 (1-28) was observed.

Turning to “high Mr HSPG: ˜600-800 kDa heparan sulfate proteoglycan isolated from culture media of bovine aortic endothelial cells”, the “applied 125I-HSPG bound to the BAP column” value in assay [1] stood at 21.6±4.4%. Also, the “binding to BAP (1-28) affinity column” value in the assay with BAP (residues 1-28) is “strong binding; also recorded: bound tightly”; in the assay with BAP (residues 1-28) (listed as 125I-HSPG), “high affinity”. In the assay with BAP (residues 1-28) (after 0 to 4M MgCl2 gradient and 4M MgCl2 wash), the “eluent that removed most bound PGs from BAP column” value came to 8M urea+3M NaCl. In addition, the “decrease in HSPG binding to mutated β/A4 (1-28)” value with mutated β/A4 (1-28) was 50-60%.
